These results are taken from the supplement of paper PMC10065799, “High-throughput profiling of sequence recognition by tyrosine kinases and SH2 domains using bacterial peptide display” (eLife, 2023).

The target of one data set is SHP2-C SH2. Nature of the data set: SH2 binding enrichment of the phosphorylated peptide, bacterial display (enrichment ratio); higher = better substrate or ligand; peptides without Tyr show the background.
The next data set has as its target Grb2 SH2 (UniProt P62993). Described as above.
The target of another data set is c-Src SH2. Described as above.
In another data set the target is Fyn (UniProt P06241). Nature of the data set: phosphorylation enrichment, bacterial display (enrichment ratio); higher = better substrate or ligand; peptides without Tyr show the background.
In the next data set the target is MERTK (UniProt Q12866). The data set is described as above.
The next data set concerns the target EPHB2 (UniProt P29323). The description is as above.
For the next data set, the target named is EPHB1 (UniProt P54762). Described as above.
A further data set concerns the target FGFR3 (UniProt P22607). The description is as above.
The target of the next data set is Jak2 (UniProt O60674). Described as above.
A further data set concerns AncSZ. The data set is described as above.
The next data set concerns c-Abl (mouse). The description is as above.
Another data set addresses Fes (UniProt P07332). The data set is described as above.
For a further data set, the target named is FGFR1 (UniProt P11362). Described as above.
A further data set addresses Hck (UniProt P08631). The description is as above.
Another data set has as its system c-Src. The description is as above.
A further data set relates to Fer (mouse). The description is as above.
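Wherever SH2 binding enrichment of the phosphorylated peptide, bacterial display is given: peptide library displayed on the E. coli surface as eCPX fusions, selected cells deep-sequenced, score is each peptide's frequency after selection divided by its frequency in the input.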
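Wherever phosphorylation enrichment, bacterial display is given: 11-residue human phosphosite peptides and single-mutation variants displayed on the E. coli surface, counted by deep sequencing, each peptide's frequency after selection divided by its frequency in the unselected input library; frequency after pTyr selection over input frequency; kinase dosed for 20-30% of maximal phosphorylation in three min.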

Grb2 SH2, sequence (P62993 whole entry, looked up): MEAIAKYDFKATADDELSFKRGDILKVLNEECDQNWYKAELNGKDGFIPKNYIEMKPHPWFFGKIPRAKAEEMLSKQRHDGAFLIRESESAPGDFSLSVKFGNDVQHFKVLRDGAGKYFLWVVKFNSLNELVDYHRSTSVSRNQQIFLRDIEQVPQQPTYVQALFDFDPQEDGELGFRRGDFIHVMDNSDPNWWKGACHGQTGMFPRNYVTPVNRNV
EPHB2, sequence (P29323 whole entry, looked up): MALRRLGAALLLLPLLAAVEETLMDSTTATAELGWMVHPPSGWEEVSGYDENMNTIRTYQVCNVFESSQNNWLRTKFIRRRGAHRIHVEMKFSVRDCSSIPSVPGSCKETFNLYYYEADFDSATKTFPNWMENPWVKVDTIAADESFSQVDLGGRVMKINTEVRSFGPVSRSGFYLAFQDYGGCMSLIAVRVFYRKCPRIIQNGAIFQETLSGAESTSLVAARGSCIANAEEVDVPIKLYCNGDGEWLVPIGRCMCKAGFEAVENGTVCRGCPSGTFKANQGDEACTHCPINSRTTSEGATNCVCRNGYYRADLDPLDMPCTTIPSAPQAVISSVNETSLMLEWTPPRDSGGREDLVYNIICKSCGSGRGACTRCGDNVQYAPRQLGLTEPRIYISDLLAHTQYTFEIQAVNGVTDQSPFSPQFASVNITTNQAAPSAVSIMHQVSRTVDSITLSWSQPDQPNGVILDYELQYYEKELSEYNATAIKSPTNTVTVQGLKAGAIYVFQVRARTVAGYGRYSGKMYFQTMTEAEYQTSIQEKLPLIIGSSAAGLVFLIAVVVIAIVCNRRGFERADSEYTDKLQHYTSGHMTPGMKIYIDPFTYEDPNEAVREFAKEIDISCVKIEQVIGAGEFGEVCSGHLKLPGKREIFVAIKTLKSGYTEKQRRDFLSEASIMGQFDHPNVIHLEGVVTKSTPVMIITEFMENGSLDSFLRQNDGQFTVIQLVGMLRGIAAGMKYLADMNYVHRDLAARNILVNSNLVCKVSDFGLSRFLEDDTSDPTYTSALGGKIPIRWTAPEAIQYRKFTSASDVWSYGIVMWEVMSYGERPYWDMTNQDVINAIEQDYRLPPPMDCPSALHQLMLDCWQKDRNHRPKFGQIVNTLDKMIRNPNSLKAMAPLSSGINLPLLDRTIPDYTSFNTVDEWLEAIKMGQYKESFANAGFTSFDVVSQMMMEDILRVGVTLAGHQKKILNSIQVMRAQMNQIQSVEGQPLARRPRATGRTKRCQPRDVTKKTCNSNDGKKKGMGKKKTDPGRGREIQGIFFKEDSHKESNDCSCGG
Fes, sequence (P07332 whole entry, looked up): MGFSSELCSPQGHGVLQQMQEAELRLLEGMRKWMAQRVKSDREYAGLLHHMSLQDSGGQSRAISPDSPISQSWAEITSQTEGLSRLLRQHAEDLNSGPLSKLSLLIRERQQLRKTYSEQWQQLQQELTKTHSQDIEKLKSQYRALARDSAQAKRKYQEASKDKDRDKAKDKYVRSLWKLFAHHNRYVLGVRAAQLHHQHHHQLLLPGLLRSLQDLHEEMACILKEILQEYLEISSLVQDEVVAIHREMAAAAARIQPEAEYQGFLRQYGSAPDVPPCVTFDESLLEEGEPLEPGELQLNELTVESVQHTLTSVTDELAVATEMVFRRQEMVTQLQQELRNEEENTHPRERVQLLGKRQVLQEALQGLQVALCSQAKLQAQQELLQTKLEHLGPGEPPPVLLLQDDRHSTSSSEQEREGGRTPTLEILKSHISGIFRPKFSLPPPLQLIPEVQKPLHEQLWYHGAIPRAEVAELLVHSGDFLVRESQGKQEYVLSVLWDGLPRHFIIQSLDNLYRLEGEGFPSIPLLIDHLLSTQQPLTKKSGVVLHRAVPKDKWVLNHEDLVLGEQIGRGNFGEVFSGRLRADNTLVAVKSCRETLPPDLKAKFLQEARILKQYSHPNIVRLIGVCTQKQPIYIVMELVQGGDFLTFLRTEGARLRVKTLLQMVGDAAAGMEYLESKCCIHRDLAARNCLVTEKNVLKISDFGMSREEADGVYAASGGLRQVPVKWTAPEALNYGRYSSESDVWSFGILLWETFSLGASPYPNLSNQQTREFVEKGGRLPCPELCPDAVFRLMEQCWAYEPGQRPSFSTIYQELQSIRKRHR
Fyn, sequence (P06241 whole entry, looked up): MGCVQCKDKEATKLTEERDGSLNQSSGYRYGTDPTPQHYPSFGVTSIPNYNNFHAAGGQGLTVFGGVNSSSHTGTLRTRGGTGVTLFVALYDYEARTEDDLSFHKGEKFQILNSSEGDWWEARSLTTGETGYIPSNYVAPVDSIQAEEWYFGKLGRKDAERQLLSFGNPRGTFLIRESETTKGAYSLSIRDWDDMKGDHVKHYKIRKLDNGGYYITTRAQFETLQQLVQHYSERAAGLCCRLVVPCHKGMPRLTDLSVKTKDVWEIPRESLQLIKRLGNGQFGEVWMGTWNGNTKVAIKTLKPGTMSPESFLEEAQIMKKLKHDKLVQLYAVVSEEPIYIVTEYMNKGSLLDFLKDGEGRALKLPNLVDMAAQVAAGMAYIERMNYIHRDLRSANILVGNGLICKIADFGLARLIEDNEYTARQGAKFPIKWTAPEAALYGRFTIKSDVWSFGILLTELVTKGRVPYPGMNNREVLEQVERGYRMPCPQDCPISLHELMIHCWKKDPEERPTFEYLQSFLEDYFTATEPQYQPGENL
MERTK, sequence (Q12866 whole entry, looked up): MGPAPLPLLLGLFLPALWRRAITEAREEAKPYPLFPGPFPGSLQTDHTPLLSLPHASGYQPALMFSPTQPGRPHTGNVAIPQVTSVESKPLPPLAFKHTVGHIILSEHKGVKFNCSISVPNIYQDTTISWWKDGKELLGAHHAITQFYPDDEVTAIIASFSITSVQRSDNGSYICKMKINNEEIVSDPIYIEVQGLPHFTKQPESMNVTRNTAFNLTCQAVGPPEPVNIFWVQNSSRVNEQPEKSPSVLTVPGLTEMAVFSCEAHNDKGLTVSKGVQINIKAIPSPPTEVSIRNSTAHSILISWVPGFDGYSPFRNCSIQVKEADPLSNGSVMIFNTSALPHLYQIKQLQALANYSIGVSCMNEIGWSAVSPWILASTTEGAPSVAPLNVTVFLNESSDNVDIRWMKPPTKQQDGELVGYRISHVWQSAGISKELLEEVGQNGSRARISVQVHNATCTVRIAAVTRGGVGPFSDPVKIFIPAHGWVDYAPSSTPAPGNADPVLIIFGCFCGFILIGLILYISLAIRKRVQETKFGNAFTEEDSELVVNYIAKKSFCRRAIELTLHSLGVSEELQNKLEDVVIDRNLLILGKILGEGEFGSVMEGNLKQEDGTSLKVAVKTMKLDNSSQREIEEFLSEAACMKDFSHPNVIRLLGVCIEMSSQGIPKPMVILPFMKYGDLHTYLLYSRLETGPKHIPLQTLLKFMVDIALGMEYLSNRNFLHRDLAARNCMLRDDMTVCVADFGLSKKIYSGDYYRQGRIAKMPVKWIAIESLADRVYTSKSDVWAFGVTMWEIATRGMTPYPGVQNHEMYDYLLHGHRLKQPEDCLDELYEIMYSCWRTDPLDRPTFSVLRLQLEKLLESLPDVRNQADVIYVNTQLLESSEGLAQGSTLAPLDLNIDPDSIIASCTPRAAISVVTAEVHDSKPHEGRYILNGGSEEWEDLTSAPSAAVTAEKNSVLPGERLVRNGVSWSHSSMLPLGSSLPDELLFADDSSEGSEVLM
FGFR1, sequence (P11362 whole entry, looked up): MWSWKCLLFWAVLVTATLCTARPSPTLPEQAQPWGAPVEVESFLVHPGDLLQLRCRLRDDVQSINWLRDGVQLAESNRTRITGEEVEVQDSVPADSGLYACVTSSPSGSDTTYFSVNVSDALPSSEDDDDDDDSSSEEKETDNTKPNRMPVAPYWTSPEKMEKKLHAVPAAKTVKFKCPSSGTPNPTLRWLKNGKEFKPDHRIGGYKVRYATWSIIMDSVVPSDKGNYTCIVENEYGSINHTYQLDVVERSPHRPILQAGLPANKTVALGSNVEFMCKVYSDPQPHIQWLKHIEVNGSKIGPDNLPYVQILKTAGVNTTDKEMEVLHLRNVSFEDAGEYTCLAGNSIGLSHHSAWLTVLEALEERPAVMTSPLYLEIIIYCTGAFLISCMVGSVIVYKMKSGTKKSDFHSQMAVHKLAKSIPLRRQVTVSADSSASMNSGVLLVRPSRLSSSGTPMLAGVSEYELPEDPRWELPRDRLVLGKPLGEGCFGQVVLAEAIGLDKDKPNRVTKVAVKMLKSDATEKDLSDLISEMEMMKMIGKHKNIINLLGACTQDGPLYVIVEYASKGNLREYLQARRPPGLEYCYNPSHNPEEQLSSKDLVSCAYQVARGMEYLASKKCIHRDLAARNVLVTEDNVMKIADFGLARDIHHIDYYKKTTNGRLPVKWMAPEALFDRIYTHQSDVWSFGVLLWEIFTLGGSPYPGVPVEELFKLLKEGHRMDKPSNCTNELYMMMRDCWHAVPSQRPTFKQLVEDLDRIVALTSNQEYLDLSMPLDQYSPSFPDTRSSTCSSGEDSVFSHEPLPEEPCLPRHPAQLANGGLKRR
Hck, sequence (P08631 whole entry, looked up): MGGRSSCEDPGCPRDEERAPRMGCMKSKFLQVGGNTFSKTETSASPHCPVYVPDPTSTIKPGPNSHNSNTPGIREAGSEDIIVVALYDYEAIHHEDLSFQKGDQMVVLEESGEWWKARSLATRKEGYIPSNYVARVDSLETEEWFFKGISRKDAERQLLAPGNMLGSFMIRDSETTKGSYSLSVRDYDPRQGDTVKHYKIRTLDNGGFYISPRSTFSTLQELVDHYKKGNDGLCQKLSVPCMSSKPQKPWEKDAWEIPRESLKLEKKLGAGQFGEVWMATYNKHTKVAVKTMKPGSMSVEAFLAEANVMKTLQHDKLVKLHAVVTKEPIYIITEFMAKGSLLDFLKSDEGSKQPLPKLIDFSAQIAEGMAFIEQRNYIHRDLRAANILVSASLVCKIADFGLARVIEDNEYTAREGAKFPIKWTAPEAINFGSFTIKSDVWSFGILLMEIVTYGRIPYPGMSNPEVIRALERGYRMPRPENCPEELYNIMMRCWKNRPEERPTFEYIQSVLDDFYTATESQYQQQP

Regarding RPIEVYLCPEE [E2F3_Y349_G344R], the SH2 binding enrichment in the data set with SHP2-C SH2 turned out to be 0.809; with Grb2 SH2, 0.918; with c-Src SH2, 0.559. The phosphorylation enrichment with Fyn came to 1.06; with MERTK, 0.975; with EPHB2, 0.998; with EPHB1, 1.49; in the data set with FGFR3 it was 1.3; with Jak2 it was 3.12. In addition, the phosphorylation enrichment was determined as 3.41 in the data set with AncSZ; 1.97 in the data set on c-Abl (mouse); 3.24 in the data set with Fes; 1.11 with FGFR1; 1.04 in the data set with Hck; 2.55 with c-Src. Besides, the phosphorylation enrichment in the data set with Fer (mouse) is 0.938.

For the sequence DVLEFYNSKKT [PAK1_Y131], the SH2 binding enrichment with SHP2-C SH2 is 0.576; with Grb2 SH2 it was 0.731; with c-Src SH2, 0.752. The phosphorylation enrichment is 0.525 with Fyn; 0.405 with MERTK; 0.544 with EPHB2; 0.517 in the data set with EPHB1; 0.718 in the data set with FGFR3; 1.11 in the data set with Jak2. Also, the phosphorylation enrichment in the data set on AncSZ was found to be 1.08; in the data set on c-Abl (mouse), 0.925; with Fes, 1.38; in the data set with FGFR1 it was 0.856; with Hck, 0.518; with c-Src, 0.504. Further, the phosphorylation enrichment in the data set on Fer (mouse) came out at 1.13.

Turning to IEPGIYIPEDD [XPNPEP3_Y455], the SH2 binding enrichment in the data set with SHP2-C SH2 was found to be 0.819; with Grb2 SH2, 0.802; with c-Src SH2, 0.454. For the same sequence, the phosphorylation enrichment with Fyn is 0.59; in the data set with MERTK it was 0.558; in the data set with EPHB2, 0.523; with EPHB1 it was 0.598; with FGFR3, 0.902; in the data set with Jak2, 1.24. Besides, the phosphorylation enrichment with AncSZ amounted to 1.23; in the data set with c-Abl (mouse), 1.05; with Fes it was 1.38; with FGFR1 it was 0.521; in the data set with Hck, 0.592; in the data set on c-Src, 0.702. Further, the phosphorylation enrichment with Fer (mouse) was 0.576.

As to PIAPVYAPSMV [ACAT1_Y331_A333P], the SH2 binding enrichment with SHP2-C SH2 worked out at 0.718; in the data set with Grb2 SH2, 0.785; with c-Src SH2, 0.621. Also, the phosphorylation enrichment amounted to 9.96 with Fyn; 4.7 with MERTK; 2.72 with EPHB2; 2.4 with EPHB1; 1.22 with FGFR3; 0.738 with Jak2. Besides, the phosphorylation enrichment with AncSZ was determined as 1.35; with c-Abl (mouse), 49.8; in the data set with Fes it was 1.67; with FGFR1, 0.779; with Hck, 21; in the data set on c-Src it was 8.41. Moreover, the phosphorylation enrichment in the data set on Fer (mouse) is 16.1.

As for RPFFLYVAFHN [SGSH_Y174_D179N], the SH2 binding enrichment with SHP2-C SH2 was determined as 0.515; in the data set with Grb2 SH2 it was 0.933; in the data set with c-Src SH2 it was 0.478. The phosphorylation enrichment with Fyn worked out at 0.321; with MERTK, 0.453; with EPHB2, 0.491; with EPHB1, 0.74; with FGFR3, 0.837; with Jak2, 0.762. Further, the phosphorylation enrichment stood at 1.04 with AncSZ; 0.472 with c-Abl (mouse); 0.918 with Fes; 0.564 with FGFR1; 0.327 in the data set with Hck; 0.33 in the data set with c-Src. For the same sequence, in the data set on Fer (mouse), the phosphorylation enrichment is 0.405.
